Source: paper PMC5735978

What was measured:
[1] = biological target: 6xHis-14-3-3γ wild-type (human) (UniProt P61981); test: native gel or EMSA; blue native gel (4-16%) of His-14-3-3γ after incubation with Flag-PAK6 S531N (4:1 molar ratio) under kinase assay conditions with or without 1 mM ATP; Coomassie staining
14-3-3γ = 14-3-3γ (UniProt P61981); test: overlay of His-14-3-3γ on blotted Flag-PAK6; settings: reference: PAK6 wild type; sites S113
LRRK2 = LRRK2 (UniProt Q5S007); test: overlay of His-14-3-3γ on blotted Flag-LRRK2; settings: reference: 14-3-3γ wild type; sites S59

6xHis-14-3-3γ wild-type (from UniProt P61981 1-247) (natural protein)
stoichiometry N [1]: 2

PAK6 (from UniProt Q9NQU5) PAK6 S113A
binding against the reference (14-3-3γ): weaker

14-3-3γ (from UniProt P61981) 14-3-3γ S59D
other: percent reduction versus wild type (LRRK2): 80%
